Measurements: the Human Domainome abundance scans (Beltran et al. 2025)

B1: POU domain, class 6, transcription factor 2, residues 609 to 663; numbered along this chain, P78424 (parent)
chain: KRRTSFTPQALEILNAHFEKNTHPSGQEMTEIAEKLNYDREVVRVWFCNKRQALK

Variants of: B1
Test: abundance fitness (aPCA) (normalised: wild type 0, dead -1); higher = more abundant; growth selection in yeast, the domain comes from the species named
Settings: Homo sapiens

Abundance fitness, by site and new letter:
D39: I -0.597, E -0.208, N -0.138, V -0.418, M -0.483, Q -0.152, T -0.002, W -0.54, H -0.113, G -0.146, K -0.257, R -0.131, C -0.093, Y -0.425, F -0.635, S -0.052, P 0.037
V43: D -0.764, M -0.931, H -1.04, C -0.24, K -1.17, T -0.579, R -0.935, Q -1.04, G -0.943, W -0.979, I -0.218, F -0.665, A -0.614, E -0.762, P -0.938, L -0.201, S -0.958, Y -0.908
V42: W -0.151, I -0.117, Q -0.124, P 0.019, T 0.002, D -0.012, G -0.056, S 0.029, M 0.034, E 0.004, R -0.176, N -0.064, Y -0.099, K 0.066, L 0.061
K35: Y -0.088, S -0.047, Q -0.095, T 0.071, V -0.112, R -0.053, P -0.883
L36: R -0.967, S -0.6, W -0.642, V -0.003, C -0.073, A -0.094, M -0.175, G -0.823
V45: Y -0.653, K -0.149, M 0.07, A -0.029, H -0.141, G 0.03, E -0.194, W -0.055, I -0.068, R 0.018, F -0.243, Q -0.296, D 0.094, P -0.706, L 0.02
W46: C -0.997
E41: C -0.119, A -0.218, V -0.496, H -0.29, M -0.42, Y -0.321, Q -0.216, S -0.153, L -0.617, R -0.107, T -0.082, D -0.104, N -0.185, F -0.743, K 0.021, P -0.879, G -0.186, I -0.504, W -0.319
N37: L -0.241, S -0.046, C -0.252, Y 0.127, P -0.229, I -0.326, K -0.036, G 0.081, W -0.444, A -0.035, V -0.456, Q -0.06, E -0.075, F -0.353, R -0.063, T -0.263, D -0.042
R40: E 0.017, V -0.013, I -0.029, G 0.069, Y -0.087, D 0.186, W -0.014, F 0.041, L 0.061, K 0.001, A 0.024, S -0.034, P -0.003, C -0.064, T -0.011, Q -0.12
Y38: A 0.02, M 0.022, K -0.133, C 0.023, D -0.152, G -0.2, P -1.08, T 0.072, L 0.006, R -0.024, Q 0.024, F -0.145, W -0.071, I 0.027, H -0.176, S 0.034, N -0.405
R44: C -0.076, I -0.152, V 0.034, L -0.21, S -0.094, Y 0.062, T 0.018, E 0.027, W 0.037, A -0.017, F -0.117, P -0.421, H -0.199, D -0.179, M -0.075, N -0.195, K -0.195
